Residue numbers refer to the chain shown, from its start.
Tests used:
Assay in all cases: pull-down
[1] = target: T1, GST-Agno (F31A) (JC virus (JCV Mad-1), UniProt P03086 1-71, F31A)
T1 sequence: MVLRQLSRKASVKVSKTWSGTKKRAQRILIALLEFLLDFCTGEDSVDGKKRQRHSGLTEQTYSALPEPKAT

[2] = target: T2, GST-Agno (F35A) (JC virus (JCV Mad-1), UniProt P03086 1-71, F35A)
T2 sequence: T1 sequence with A31F, F35A

[3] = target: T3, GST-Agno (F39A) (JC virus (JCV Mad-1), UniProt P03086 1-71, F39A)
T3 sequence: T1 sequence with A31F, F39A

Measured: fold decrease of the interaction against WT agnoprotein

B1: JCV large T-antigen in whole-cell extracts of HJC-15b cells (natural protein)
chain: MDKVLNREESMELMDLLGLDRSAWGNIPVMRKAYLKKCKELHPDKGGDEDKMKRMNFLYKKMEQGVKVAHQPDFGTWNSSEVPTYGTDEWESWWNTFNEKWDEDLFCHEEMFASDDENTGSQHSTPPKKKKKVEDPKDFPVDLHAFLSQAVFSNRTVASFAVYTTKEKAQILYKKLMEKYSVTFISRHGFGGHNILFFLTPHRHRVSAINNYCQKLCTFSFLICKGVNKEYLFYSALCRQPYAVVEESIQGGLKEHDFNPEEPEETKQVSWKLVTQYALETKCEDVFLLMGMYLDFQENPQQCKKCEKKDQPNHFNHHEKHYYNAQIFADSKNQKSICQQAVDTVAAKQRVDSIHMTREEMLVERFNFLLDKMDLIFGAHGNAVLEQYMAGVAWIHCLLPQMDTVIYDFLKCIVLNIPKKRYWLFKGPIDSGKTTLAAALLDLCGGKSLNVNMPLERLNFELGVGIDQFMVVFEDVKGTGAESRDLPSGHGISNLDCLRDYLDGSVKVNLERKHQNKRTQVFPPGIVTMNEYSVPRTLQARFVRQIDFRPKAYLRKSLSCSEYLLEKRILQSGMTLLLLLIWFRPVADFAAAIHERIVQWKERLDLEISMYTFSTMKANVGMGRPILDFPREEDSEAEDSGHGSSTESQSQCFSQVSEASGADTQENCTFHICKGFQCFKKPKTPPPK
> 3 fold: all assays above
